Data taken from paper doi:10.1101/2021.04.06.438592, “Structural basis for how sMAC is packaged for clearance” (bioRxiv, 2021).
“And” between values parts separate entries of the source, which are not always exact repeats. Identical values can stand only once.

B1: complement C9 (natural protein)
chain: not shown
modifications: N-linked glycan (NAG) on Asn394
notes: One to three copies stand in sMAC, in two conformations; also called C9_(1); C9_(2); source: bought: Complement Technologies (as part of purified sMAC)

Assays:
Conditions in all cases: both partners purified
[1] = target: T1, complement C8 (C8α/C8β/C8γ) (human, UniProt P07357 31-584; P07358 55-591; P07360 21-202); experiment: cryo-EM structure; purified sMAC (Complement Technologies) at 0.065 mg/ml in 120 mM NaCl, 10 mM Hepes pH7.4; 3D classes with 1, 2 or 3 C9; focused refinements after density subtraction
T1 construct: complement component C8 alpha chain, human; complement component C8 beta chain, human; complement component C8 gamma chain, human; Kept as one molecule; source: bought: Complement Technologies (as part of purified sMAC); copies: 1 + 1 + 1

complement C9 = target: B1; experiment: cross-linking; XL-MS of purified sMAC (0.5 mg/ml) with 1 mM DSS or 15 mM DMTMM, 30 min at RT, triplicates; LC-MS/MS, pLink
[2] = target: T1, complement C8 (C8α/C8β/C8γ); experiment: as above

T1 sequence (P07357 31-584, chain 1 of 3): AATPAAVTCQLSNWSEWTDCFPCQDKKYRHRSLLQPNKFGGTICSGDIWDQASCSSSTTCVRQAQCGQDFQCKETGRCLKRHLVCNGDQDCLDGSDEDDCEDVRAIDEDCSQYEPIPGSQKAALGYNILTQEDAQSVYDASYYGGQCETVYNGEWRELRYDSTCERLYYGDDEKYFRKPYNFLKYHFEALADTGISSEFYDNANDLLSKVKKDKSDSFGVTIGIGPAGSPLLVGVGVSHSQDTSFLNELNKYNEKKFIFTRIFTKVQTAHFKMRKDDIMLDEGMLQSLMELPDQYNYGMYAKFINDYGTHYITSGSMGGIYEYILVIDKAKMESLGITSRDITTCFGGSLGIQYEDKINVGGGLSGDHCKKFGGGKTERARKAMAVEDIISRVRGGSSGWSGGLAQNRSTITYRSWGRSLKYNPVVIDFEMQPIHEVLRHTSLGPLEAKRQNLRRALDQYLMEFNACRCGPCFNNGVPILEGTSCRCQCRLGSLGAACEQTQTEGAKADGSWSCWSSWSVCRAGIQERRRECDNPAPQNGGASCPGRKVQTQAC
T1 sequence (P07358 55-591, chain 2 of 3): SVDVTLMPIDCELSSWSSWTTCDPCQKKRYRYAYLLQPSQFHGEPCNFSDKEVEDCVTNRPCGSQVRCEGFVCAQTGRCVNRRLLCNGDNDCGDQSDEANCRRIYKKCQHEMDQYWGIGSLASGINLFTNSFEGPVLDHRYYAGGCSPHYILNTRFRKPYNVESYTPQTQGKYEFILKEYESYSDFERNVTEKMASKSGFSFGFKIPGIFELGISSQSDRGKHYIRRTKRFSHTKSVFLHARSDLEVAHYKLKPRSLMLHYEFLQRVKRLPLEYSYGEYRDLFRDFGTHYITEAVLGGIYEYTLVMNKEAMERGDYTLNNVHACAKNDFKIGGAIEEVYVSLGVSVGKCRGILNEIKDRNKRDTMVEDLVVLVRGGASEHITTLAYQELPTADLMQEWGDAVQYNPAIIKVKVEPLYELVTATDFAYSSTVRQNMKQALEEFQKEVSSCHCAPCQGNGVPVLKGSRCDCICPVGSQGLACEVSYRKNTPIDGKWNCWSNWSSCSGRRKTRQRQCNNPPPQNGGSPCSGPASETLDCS
T1 sequence (P07360 21-202, chain 3 of 3): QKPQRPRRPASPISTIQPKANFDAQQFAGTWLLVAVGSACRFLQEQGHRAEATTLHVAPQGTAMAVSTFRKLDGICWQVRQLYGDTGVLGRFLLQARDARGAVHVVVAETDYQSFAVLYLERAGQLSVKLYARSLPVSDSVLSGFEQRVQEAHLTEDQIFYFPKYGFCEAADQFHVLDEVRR
Chain of complement C9 (P02748 22-559): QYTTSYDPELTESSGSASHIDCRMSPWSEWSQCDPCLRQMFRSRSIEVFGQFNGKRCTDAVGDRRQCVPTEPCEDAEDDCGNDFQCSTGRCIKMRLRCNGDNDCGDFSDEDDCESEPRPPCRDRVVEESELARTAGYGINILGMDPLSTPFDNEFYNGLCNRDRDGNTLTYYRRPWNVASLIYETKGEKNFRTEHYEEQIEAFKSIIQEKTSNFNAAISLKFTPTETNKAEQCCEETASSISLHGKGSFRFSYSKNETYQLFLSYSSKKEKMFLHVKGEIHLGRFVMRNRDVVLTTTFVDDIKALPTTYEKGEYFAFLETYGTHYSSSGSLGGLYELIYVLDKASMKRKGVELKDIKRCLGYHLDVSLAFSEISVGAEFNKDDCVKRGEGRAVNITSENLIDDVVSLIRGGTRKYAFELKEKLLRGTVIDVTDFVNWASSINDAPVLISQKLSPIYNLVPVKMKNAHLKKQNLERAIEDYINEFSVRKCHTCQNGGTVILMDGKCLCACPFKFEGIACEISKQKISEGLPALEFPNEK

stoichiometry N [1]	binding result (complement C9)	binding result [2]	Binder
1 copies and 3 copies	–	–	B1
–	binds	binds	clusterin (natural protein, human, highly glycosylated | highly glycosylated, Secreted clusterin, about 80 kDa; multiple copies in sMAC; Not modelled in the deposited structures; the clusterin core model (residues 40-124 and 256-427) is a prediction; also called apolipoprotein J; source: bought: Complement Technologies (as part of purified sMAC)) chain 1: DQTVSDNELQEMSNQGSKYVNKEIQNAVNGVKQIKTLIEKTNEERKTLLSNLEEAKKKKEDALNETRESETKLKELPGVCNETMMALWEECKPCLKQTCMKFYARVCRSGSGLVGRQLEEFLNQSSPFYFWMNGDRIDSLLENDRQQTHMLDVMQDHFSRASSIIDELFQDRFFTREPQDTYHYLPFSLPHRRPHFFFPKSRIVR chain 2: SLMPFSPYEPLNFHAMFQPFLEMIHEAQQAMDIHFHSPAFQHPPTEFIREGDDDRTVCREIRHNSTGCLRMKDQCDKCREILSVDCSTNNPSQAKLRRELDESLQVAERLTRKYNELLKSYQWKMLNTSSLLEQLNEQFNWVSRLANLTQGEDQYYLRVTTVASHTSDSDVPSGVTEVVVKLFDSDPITVTVPVEVSRKNPKFMETVAEKALQEYRKKHREE
